Measurements published in IntAct's records for PubMed 19726565.

B1: Inositol phosphorylceramide synthase regulatory subunit KEI1 (Saccharomyces cerevisiae), Q06346 (parent)
chain: MRSSLLTLPKSFLGFMPLYLAVEIVLGISILNKCSGAYGILALFTGHPLDFMQWIAYLWSVFTLIVFSQGLYLIHKPNLLVFSQICVLYTIDTISTCFFTLWFTTQWFTLEDTANIDGNNALQSNPISTGKLTERGIDISKQSATESYEYTMTILITLVSLIFRFYFNFILASFVQELLHHPKYLVDRDDVEQNLKNKPIWKRLWAKSQKGCYKLCKNLLE
partner: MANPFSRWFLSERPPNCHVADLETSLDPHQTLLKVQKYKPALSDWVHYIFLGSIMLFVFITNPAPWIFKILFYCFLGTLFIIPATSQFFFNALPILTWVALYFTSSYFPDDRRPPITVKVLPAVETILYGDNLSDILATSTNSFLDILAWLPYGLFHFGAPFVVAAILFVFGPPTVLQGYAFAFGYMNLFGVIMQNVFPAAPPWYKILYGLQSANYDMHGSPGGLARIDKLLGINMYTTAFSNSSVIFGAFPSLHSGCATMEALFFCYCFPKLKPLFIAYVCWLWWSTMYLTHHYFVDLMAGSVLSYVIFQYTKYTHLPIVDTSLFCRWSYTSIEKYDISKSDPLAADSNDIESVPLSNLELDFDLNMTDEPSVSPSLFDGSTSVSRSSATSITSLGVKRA

Variants of: B1
Details: with aur1_yeast AUR1, P36107

Row | effect of a mutation on the interaction | Variant
1 | disrupting interaction strength | MRSSLLTLPKSFLGFMPLYLAVEIVLGISILNKCSGAYGILALFTGHPLDFMQWIAYLWSVFTLIVFSQGLYLIHKPNLLVFSQICVLYTIDTISTCFFTLWITTQWFTLEDTANIDGNNALQSNPISTGKLTERGIDISKQSATESYEYTMTILITLVSLIFRFYFNFILASFVQELLHHPKYLVDRDDVEQNLKNKPIWKRLWAKSQKGCYKLCKNLLE [F103I]
